Experimental data reported in the supplement of paper PMC7125110.
± gives the standard error. For some of these results: Variants at the floor of the assay were thinned out.

B1: glmS ribozyme (parent)
chain: AUAAAAGCGCCAGAACUACAGAAAUGUAGUUGACGAGGAGGAGGUUUAUCGAAUUUUCGGCGGAUGCCUCCAAA

Columns and labels:
Details in all cases: with glucosamine-6-phosphate
[1] = variants of: B1; test: kcat; higher = faster cleavage; RNA array
Procedure, shortened: (§1)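 Barcoded ribozyme variants were transcribed in situ on sequenced MiSeq chips by E. coli RNA polymerase. At 37 °C, a hybridised Cy3 probe tracked them while glucosamine-6-phosphate (40 μM to 10 mM) in HEPES/KCl/Mg(OAc)2 buffer flowed in and tiles were imaged over ~14 h. Per-tile medians of signals normalised to baseline and to non-cleaving reference variants were fit to one- or two-exponential decays, giving kobs. kcat and KM came from weighted Michaelis–Menten fits across concentrations.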

[2] = variants of: B1; test: KM; higher = weaker cofactor use; RNA array
Procedure, shortened: as §1

[3] = variants of: B1; test: self-cleavage kobs at 160 uM GlcN6P; higher = faster cleavage; RNA array
Procedure, shortened: as §1

[4] = variants of: B1; test: self-cleavage kobs at 640 uM GlcN6P; higher = faster cleavage; RNA array
Procedure, shortened: as §1

[5] = variants of: B1; test: self-cleavage kobs at 2500 uM GlcN6P; higher = faster cleavage; RNA array
Procedure, shortened: as §1

[6] = variants of: B1; test: self-cleavage kobs at 10000 uM GlcN6P; higher = faster cleavage; RNA array
Procedure, shortened: as §1

[7] = variants of: B1; test: self-cleavage kobs at 40 uM GlcN6P; higher = faster cleavage; RNA array
Procedure, shortened: as §1

| Variant | kcat [1] [s⁻¹] | KM [2] [µM] | self-cleavage kobs at 160 uM GlcN6P [3] [s⁻¹] | self-cleavage kobs at 640 uM GlcN6P [4] [s⁻¹] | self-cleavage kobs at 2500 uM GlcN6P [5] [s⁻¹] | self-cleavage kobs at 10000 uM GlcN6P [6] [s⁻¹] | self-cleavage kobs at 40 uM GlcN6P [7] [s⁻¹] |
| --- | --- | --- | --- | --- | --- | --- | --- |
| AUAAAAGCGCCAGAACUACAGAAAUGUAGUUGACGAGGAGGGGGUUUAACGAAUUUUCGGCGGAUGCCUCCAAA [A42G U49A] | 1.03e-05 ± 2.5e-06 | – | – | – | – | – | – |
| AUAAAAGCGCUAGAACUACAGAAAUGUAGUUGACGAGGAGGAGGUUUAUCGAAUCUUCGGCGGAUGCCUCCAAA [C11U U55C] | 0.00286 ± 0.00063 | 6220 ± 1800 | 6.7e-05 ± 1.2e-05 | 0.00029 ± 4.1e-05 | 0.000776 ± 0.0001 | 0.00181 ± 0.0003 | – |
| AUAAAAGCGCCAGAACUACAGAAAUGUAGUUGACGAGGAGGAGGUUUAUCGAAUGUUCGGCGGAUGCCUCCAAA [U55G] | 0.0523 ± 0.0043 | 2390 ± 240 | 0.00312 ± 0.00021 | 0.0103 ± 0.00037 | 0.0271 ± 0.0015 | 0.0436 ± 0.0021 | 0.000889 ± 2.1e-05 |
| AUAAAAGCGCCAGAACUACAGAAAUGUAGUUGACGAGGAGGCGGUUUAUCGAAUGUUCGGCGGAUGCCUCCAAA [A42C U55G] | < 1e-05 | – | – | – | – | – | < 1e-05 |
| AUAAAAGCGCCAGCACUACAGAAAUGUAGCUGACGAGGAGGAGGUUUAUCGAAUUUUCGGCGGAUGCCUCCAAA [A14C U30C] | 1.53e-05 ± 3.1e-07 | 151 ± 50 | < 1e-05 | – | – | – | – |
| AUAAAAGCGCCAAAACUACAGAAAUGUAGUUGACGAGGAGGAGGUUUAUCGAAUUUUCGGCGGAUGGCUCCAAA [G13A C67G] | 2.66e-05 ± 2.6e-06 | – | – | 2.71e-05 ± 1.2e-05 | 3.63e-05 ± 1.7e-05 | 2.48e-05 ± 6.5e-06 | < 1e-05 |
| AUAAAAGCGCCAGAACUACAGAAAUGUAGUUGACGAGGAGGAGGUUUAUCGAAUUUACGGCGGAUGGCUCCAAA [U57A C67G] | 5.87e-05 ± 1.1e-05 | – | – | 5.39e-05 ± 1.5e-05 | 3.77e-05 ± 1.1e-05 | 7.6e-05 ± 1.1e-05 | – |
| AUAAAAACGCCAGAACUACAGAAAUGUAGUUGACGAGGGGGAGGUUUAUCGAAUUUUCGGCGGAUGCCUCCAAA [G7A A39G] | 0.000288 ± 6.2e-05 | – | < 1e-05 | – | – | 2.51e-05 ± 7.3e-06 | – |
| AUAAAAGCGCCGGAACUACAGAAAUGUAGUUGACGAGGAGGAGGUUUAUCGAAUUUUCGGCGGAUGGCUCCAAA [A12G C67G] | 0.000322 ± 4.9e-06 | 1850 ± 62 | 2.45e-05 ± 1.1e-05 | 8.36e-05 ± 8.2e-06 | 0.000182 ± 1.7e-05 | 0.000273 ± 1.9e-05 | – |
